# In paper PMC2904616:
# B1: SAV_76 (avermitilol synthase) (Streptomyces avermitilis MA-4680 = NBRC 14893) (protein)
# chain: MPQDIDFGLPAPAGISPGLEATRRHNLGWVRRLGLVGDGPSLAWYTSWDMPRLAACGFPHARGAALDLCADAMAFFFVFDDQFDGPLGRDPARAARVCRRLTGIVHGAGPGPGADACSAAFADVWARSTDGAHPGWVARTAHEWEYYFAAQAHEAINRLRGTPGDMESYLQVRRGIAGTDLPLSLGERAAGITVPAAAFHSPQLRIMREAAIDVTLMCNDVYSLEKEEARGDMDNLVLVIEHARRCTRDEAVTAARGEVARRVIRFEQLAREVPALCAQLGLSAVERAHVDTYLGVMEAWMSGYHAWQTQTRRYTGAPHVLPSTGPGYFDEVLPT
# Substrate: CC(C)=CCC/C(C)=C/CC/C(C)=C/CO[P@@](=O)(O)OP(=O)(O)O
# Assay: purified protein
# Assay type: biochemical, Streptomyces avermitilis
# Conditions: MgCl2; labelled compound ([1-3H]FPP)
protein,measurement,value
B1,Km,1.06 ± 0.11 µM
same,kcat,0.040 ± 0.001 s⁻¹
